Reference: patent publication US20110135573A1 (DYAX, published 2011)
Residue numbers refer to the chain shown, from its start.

B1: M0279-A03 (Fab, V domains shown)
VH: EVQLLESGGGLVQPGGSLRLSCAASGFTFSQYPMWWVRQAPGKGLEWVSYIVPSGGRTYYADSVKGRFTISRDNSKNTLYLQMNSLRAEDTAVYYCAKDRAYGDYVGWNGFDYWGQGTLVTVSS
VL: DIQMTQSPATLSVSPGERVTLSCKASHSISRNLAWYQQKPGQAPRLLIFGASTRATGIPARFSGSGSGTEFTLTISSLEAEDFAVYYCQQRRNWPVTFGPGTKLDFK
notes: sFab; variable domains only; also called M279-A03; M279-A03 sFab
B2: M0279-B02 (Fab, V domains shown)
VH: B1 VH
VL: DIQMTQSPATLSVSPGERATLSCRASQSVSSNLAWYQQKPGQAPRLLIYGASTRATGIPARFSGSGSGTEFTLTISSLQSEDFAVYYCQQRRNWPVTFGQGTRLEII
notes: sFab; variable domains only; also called M279-B02
B3: M0256-D11 (Fab, V domains shown)
VH: B1 VH with Q31H, P33D, Y50V, V52Y, P53S, R57P, Y59F
VL: DIQMTQSPATLSLSPGERATLSCRASQSISSFLAWYQQKPGQAPRLLIYDASYRATGIPARFSGSGSGTDFTLTISSLEPEDYAVYYCQQRGNWPITFGQGTRLEIK
notes: sFab; variable domains only; also called M256-D11; 539A-M0256-D11
B4: X0106-A01 (antibody, V domains shown)
VH: B1 VH with Q31H, P33D, Y50V, V52Y, P53S, R57P, Y59F
VL: B3 VL with D1E, Q3V, M4L, Y83F
notes: Produced and tested as IgG1; germlined, optimized version of M0256-D11; also called X106-A01; X106-A01 IgG
B5: M0276-F11 (Fab, V domains shown)
VH: B1 VH with Q31W, P33D, Y50V, V52Y, P53S, R57P, Y59F
VL: B3 VL
notes: sFab; variable domains only; also called M276-F11
B6: M0288-C08 (Fab, V domains shown)
VH: B1 VH
VL: DIQMTQSPGTLSVSPGERVTLSCRASQSVSSYLAWYQQKPGQAPRLLIYGASTRVTGIPARFSGSGSGTEFTLTISSLQSEDFAVYYCQQRSSWPITFGQGTRLEIK
notes: sFab; variable domains only; also called M288-C08
B7: M0274-G08 (Fab, V domains shown)
VH: B1 VH with Q31V, P33D, Y50V, V52Y, R57A
VL: B3 VL
notes: sFab; variable domains only; also called M274-G08
B8: M0307-F04 (Fab, V domains shown)
VH: B1 VH with Q31L, P33D, Y50V, V52Y, P53S, R57Y, Y59G
VL: B3 VL
notes: sFab; variable domains only; also called M307-F04
B9: M0275-D03 (Fab, V domains shown)
VH: EVQLLESGGGLVQPGGSLRLSCAASGFTFSQYDMWWVRQAPGKGLEWVSVIYPSGTTFYADSVKGRFTISRDNSKNTLYLQMNSLRAEDTAVYYCAKDRAYGDYVGWNGFDYWGQGTLVTVSS
VL: B3 VL
notes: sFab; variable domains only; also called M275-D03
B10: M0078-G07 (Fab, V domains shown)
VH: EVQLLESGGGLVQPGGSLRLSCAASGFTFSSYTMEWVRQAPGKGLEWVSWISPSGGYTFYADSVKGRFTISRDNSKNTLYLQMNSLRAEDTALYYCARGYSYGSIDLWGRGTLVTVSS
VL: DIQMTQSPGTLSVSPGERATLSCRASQSVSSDLAWYQHKPGQAPRLLIYGVSTKATGVPARFSGSGSGTEFTLTISSLQSEDLAVYYCQQYHNWPPLTFGGGTKVEIK
notes: variable domains only; also called Fab M0078-G07

Experiments:
[1] = target: T1, Human MMP-9 catalytic domain (BIOMOL, SE-244) (human, UniProt P14780 107-457, limits assumed); test: Ki,app, enzyme inhibition assay (fluorogenic peptide substrate), small-scale sFab
T1 construct: domain: catalytic domain; also called Cat-huMMP-9; cat-huMMP-9

[2] = target: T2, human MMP-2 (Biomol #SE-237) (human, UniProt P08253 110-452, limits assumed); test: Ki,app, enzyme inhibition assay (fluorogenic peptide substrate), medium-scale sFab
T2 construct: also called hMMP-2

[3] = target: T1, Human MMP-9 catalytic domain (BIOMOL, …); test: as above
[4] = target: T3, Mouse MMP-9 (R&D, 909-MM), APMA-activated (mouse, UniProt P41245 108-730, limits assumed); test: as above
T3 construct: also called mMMP-9; mouse MMP-9 (R&D Systems #909-MM-010)

[5] = target: TACE (R&D Systems) (UniProt P78536 215-671, limits assumed); test: cell-based or functional assay
[6] = target: MMP-13 (Biomol SE-246) (UniProt P45452 104-274); test: cell-based or functional assay
[7] = target: MMP-16 (Calbiochem #475939) (UniProt P51512 120-292, limits assumed); test: cell-based or functional assay
[8] = target: MMP-12 (Biomol SE-138) (UniProt P39900 106-263, limits assumed); test: cell-based or functional assay
[9] = target: MMP-15 (Calbiochem #475938) (UniProt P51511 132-304, limits assumed); test: cell-based or functional assay
[10] = target: MMP-8 (Biomol SE-255) (UniProt P22894 100-262, limits assumed); test: cell-based or functional assay
[11] = target: MMP-14 (Biomol SE-259) (UniProt P50281 112-284, limits assumed); test: cell-based or functional assay
[12] = target: T4, MMP-7 (Biomol SE-181) (UniProt P09237 95-267); test: cell-based or functional assay
T4 sequence (looked up): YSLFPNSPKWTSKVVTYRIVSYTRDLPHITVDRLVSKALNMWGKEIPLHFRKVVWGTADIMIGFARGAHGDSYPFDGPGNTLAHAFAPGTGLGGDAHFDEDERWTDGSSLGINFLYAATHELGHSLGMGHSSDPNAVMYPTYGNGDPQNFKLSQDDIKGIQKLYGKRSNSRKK

[13] = target: MMP-10 (Biomol SE-329) (UniProt P09238 99-265, limits assumed); test: cell-based or functional assay
[14] = target: MMP-3 (R&D Systems #513-MP) (UniProt P08254 18-477, limits assumed); test: cell-based or functional assay
[15] = target: T5, MMP-1 (Biomol SE-180) (UniProt P03956 100-269, limits assumed); test: cell-based or functional assay
T5 sequence (looked up): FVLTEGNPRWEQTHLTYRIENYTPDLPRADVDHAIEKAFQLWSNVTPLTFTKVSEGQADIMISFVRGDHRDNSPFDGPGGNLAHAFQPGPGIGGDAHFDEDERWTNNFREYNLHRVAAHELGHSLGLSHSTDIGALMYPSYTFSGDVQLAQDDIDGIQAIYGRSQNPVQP

[16] = target: T6, MMP-26 (Dyax prep #020209) (UniProt Q9NRE1 90-261, limits assumed); test: cell-based or functional assay
T6 sequence (looked up): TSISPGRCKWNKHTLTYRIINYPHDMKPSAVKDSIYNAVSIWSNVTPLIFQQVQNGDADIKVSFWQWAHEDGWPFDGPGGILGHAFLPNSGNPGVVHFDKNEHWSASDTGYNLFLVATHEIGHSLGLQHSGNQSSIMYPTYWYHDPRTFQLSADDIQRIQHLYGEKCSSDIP

[17] = target: T1, Human MMP-9 catalytic domain (BIOMOL, …); test: Ki,app, enzyme inhibition assay (fluorogenic peptide substrate), small-scale sFab; remark: listed apart in the source
Procedure: (§1) Target enzymes were incubated with inhibitor for two hours at 30° C. in reaction buffer (50 mM Tris-HCl pH 7.5, 150 mM NaCl, 5 mM CaCl₂, 0.05% Brij-35) in a total volume of 90 μL using a white 96 well plate (Costar). […] An anti-MMP-2 antibody (R&D Systems polyclonal IgG #AF902) was similarly tested with 200 nM as the highest inhibitor concentration. Reactions were initiated by the addition of 10 μL of a 10× concentrated stock of substrate, Mca-Lys-Pro-Leu-Gly-Leu-Dap(Dnp)-Ala-Arg-NH2, (Bachem M-2350), at final concentration of 10 μM and monitored at 30° C. in a Molecular Devices' Gemini fluorescence plate reader. The excitation and emission wavelengths were set at 328 nm and 393 nm, respectively. Kinetic data were acquired by the increase in fluorescence, and initial rates for each condition were plotted against the total inhibitor concentration. Reactions were performed in duplicates and all data replicates were plotted in a single graph and fit to the following equation¹: […]

[18] = target: T2, human MMP-2 (Biomol #SE-237); test: Ki,app, enzyme inhibition assay (fluorogenic peptide substrate), medium-scale sFab; remark: listed apart in the source
Procedure: as §1

[19] = target: T1, Human MMP-9 catalytic domain (BIOMOL, …); test: as above; remark: listed apart in the source
Procedure: as §1

[20] = target: T3, Mouse MMP-9 (R&D, 909-MM), …; test: as above; remark: listed apart in the source
Procedure: as §1

[21] = target: T2, human MMP-2 (Biomol #SE-237); test: Ki,app, enzyme inhibition assay (fluorogenic peptide substrate), IgG
[22] = target: T1, Human MMP-9 catalytic domain (BIOMOL, …); test: as above
[23] = target: T3, Mouse MMP-9 (R&D, 909-MM), …; test: as above
[24] = target: T2, human MMP-2 (Biomol #SE-237); test: Ki,app, enzyme inhibition assay (fluorogenic peptide substrate), small-scale sFab
Procedure: as §1

[25] = target: T3, Mouse MMP-9 (R&D, 909-MM), …; test: as above
Procedure: as §1

[26] = target: MMP-9 (PMA-activated) (Homo sapiens (Human), UniProt P14780 107-707, Biotinylated for the phage selection; the biotin sites are not stated and the letters do not carry them.); test: apparent KD; method not stated
MMP-9 (PMA-activated), sequence (P14780 107-707 limits assumed, form in doubt): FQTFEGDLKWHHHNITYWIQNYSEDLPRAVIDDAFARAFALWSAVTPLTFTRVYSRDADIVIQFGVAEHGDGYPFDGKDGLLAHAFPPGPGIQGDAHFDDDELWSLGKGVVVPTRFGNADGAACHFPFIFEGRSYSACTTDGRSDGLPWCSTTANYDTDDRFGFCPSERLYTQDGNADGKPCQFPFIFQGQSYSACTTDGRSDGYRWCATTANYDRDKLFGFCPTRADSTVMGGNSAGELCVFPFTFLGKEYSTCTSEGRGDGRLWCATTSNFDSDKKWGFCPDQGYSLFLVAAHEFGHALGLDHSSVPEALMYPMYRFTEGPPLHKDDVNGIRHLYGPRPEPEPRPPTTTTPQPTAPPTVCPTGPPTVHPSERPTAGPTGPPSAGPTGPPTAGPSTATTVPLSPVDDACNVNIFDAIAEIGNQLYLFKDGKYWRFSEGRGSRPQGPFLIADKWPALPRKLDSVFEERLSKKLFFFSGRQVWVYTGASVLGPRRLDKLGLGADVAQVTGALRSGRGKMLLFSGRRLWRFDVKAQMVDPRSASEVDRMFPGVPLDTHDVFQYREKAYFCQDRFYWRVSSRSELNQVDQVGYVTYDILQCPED

MMP-8 (Biomol SE-255), sequence (P22894 100-262 limits assumed): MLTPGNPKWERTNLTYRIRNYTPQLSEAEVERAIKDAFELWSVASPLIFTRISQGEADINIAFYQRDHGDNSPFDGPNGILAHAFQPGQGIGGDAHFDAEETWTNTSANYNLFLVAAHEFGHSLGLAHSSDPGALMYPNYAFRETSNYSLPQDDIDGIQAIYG
MMP-15 (Calbiochem #475938), sequence (P51511 132-304 limits assumed): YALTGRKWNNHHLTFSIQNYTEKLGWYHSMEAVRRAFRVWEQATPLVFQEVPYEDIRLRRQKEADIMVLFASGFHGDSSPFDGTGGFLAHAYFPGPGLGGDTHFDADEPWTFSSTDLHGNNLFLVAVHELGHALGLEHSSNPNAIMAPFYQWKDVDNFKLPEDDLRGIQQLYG
MMP-3 (R&D Systems #513-MP), sequence (P08254 18-477 limits assumed): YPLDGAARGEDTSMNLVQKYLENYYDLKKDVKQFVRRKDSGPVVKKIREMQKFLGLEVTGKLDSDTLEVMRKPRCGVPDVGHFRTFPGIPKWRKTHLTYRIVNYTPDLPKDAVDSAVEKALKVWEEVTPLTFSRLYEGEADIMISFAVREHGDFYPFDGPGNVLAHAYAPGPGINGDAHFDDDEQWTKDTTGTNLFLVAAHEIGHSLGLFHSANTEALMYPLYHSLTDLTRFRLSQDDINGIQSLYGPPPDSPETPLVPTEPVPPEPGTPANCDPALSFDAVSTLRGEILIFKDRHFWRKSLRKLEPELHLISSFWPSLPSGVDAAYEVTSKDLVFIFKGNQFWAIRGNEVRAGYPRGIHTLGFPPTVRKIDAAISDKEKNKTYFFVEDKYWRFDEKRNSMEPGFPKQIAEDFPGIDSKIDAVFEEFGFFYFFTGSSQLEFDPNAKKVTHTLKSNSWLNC
MMP-12 (Biomol SE-138), sequence (P39900 106-263 limits assumed): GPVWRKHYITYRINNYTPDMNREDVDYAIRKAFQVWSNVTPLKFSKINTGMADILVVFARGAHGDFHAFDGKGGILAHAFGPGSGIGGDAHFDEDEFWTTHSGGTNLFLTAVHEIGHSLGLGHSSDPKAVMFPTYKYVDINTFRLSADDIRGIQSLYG
T2 sequence (P08253 110-452 limits assumed): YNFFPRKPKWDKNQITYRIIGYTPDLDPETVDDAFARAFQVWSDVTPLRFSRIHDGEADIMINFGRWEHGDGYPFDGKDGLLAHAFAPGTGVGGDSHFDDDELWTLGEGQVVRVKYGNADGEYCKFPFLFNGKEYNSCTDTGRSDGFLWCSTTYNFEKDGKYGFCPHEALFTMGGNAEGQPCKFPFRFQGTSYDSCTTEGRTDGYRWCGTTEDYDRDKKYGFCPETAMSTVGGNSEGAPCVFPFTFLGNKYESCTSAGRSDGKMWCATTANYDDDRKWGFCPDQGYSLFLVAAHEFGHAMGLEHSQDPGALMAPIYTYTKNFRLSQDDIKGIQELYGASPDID
T1 sequence (P14780 107-457 limits assumed): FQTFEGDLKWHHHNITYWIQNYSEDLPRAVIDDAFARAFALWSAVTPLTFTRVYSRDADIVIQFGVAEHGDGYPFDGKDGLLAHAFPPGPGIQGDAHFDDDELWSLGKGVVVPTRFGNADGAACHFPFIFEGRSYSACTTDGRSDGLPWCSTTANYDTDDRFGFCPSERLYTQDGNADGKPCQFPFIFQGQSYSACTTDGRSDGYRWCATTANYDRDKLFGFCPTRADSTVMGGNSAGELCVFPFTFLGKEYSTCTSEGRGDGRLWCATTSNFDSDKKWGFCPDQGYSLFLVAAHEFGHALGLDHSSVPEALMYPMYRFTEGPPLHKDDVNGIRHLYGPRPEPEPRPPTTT
TACE (R&D Systems), sequence (P78536 215-671 limits assumed): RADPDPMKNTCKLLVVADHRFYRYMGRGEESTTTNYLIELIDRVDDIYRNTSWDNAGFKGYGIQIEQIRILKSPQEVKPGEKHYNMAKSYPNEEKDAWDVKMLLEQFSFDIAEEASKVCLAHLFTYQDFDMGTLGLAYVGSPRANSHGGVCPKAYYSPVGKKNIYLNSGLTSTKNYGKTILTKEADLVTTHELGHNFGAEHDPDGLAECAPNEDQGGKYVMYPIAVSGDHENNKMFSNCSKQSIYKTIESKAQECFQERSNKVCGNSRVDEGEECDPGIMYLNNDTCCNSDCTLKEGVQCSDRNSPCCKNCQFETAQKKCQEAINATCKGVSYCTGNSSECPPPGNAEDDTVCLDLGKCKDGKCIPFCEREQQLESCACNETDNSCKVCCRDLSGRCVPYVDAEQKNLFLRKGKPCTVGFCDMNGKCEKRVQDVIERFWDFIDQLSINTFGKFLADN
MMP-16 (Calbiochem #475939), sequence (P51512 120-292 limits assumed): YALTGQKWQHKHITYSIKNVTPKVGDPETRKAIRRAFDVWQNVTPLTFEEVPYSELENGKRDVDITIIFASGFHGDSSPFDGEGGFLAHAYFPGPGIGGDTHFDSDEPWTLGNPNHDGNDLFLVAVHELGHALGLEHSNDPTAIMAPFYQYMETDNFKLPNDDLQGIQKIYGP
MMP-10 (Biomol SE-329), sequence (P09238 99-265 limits assumed): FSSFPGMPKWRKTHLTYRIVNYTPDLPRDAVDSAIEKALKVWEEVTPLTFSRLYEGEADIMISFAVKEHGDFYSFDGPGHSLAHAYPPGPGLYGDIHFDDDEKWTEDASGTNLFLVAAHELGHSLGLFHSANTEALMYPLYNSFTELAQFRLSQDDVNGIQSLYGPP
T3 sequence (P41245 108-730 limits assumed): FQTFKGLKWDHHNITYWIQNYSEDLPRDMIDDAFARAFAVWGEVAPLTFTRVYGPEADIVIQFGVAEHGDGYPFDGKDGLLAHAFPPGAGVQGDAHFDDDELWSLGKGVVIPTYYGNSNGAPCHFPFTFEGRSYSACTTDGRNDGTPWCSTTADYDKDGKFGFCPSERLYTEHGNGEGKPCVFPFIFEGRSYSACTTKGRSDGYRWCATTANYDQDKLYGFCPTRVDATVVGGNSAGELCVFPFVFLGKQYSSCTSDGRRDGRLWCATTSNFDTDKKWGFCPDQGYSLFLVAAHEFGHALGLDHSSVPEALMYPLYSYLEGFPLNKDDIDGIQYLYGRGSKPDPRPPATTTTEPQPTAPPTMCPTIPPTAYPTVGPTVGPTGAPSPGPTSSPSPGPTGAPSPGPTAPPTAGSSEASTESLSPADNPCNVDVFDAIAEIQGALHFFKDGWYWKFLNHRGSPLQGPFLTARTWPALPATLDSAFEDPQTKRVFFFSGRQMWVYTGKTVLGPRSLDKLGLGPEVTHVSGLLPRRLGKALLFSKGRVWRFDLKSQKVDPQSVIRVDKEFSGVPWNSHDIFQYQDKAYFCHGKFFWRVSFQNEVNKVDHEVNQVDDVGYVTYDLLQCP

Binder | Ki [1] [nM] | Ki [2] [nM] | Ki [3] [nM] | Ki [4] [nM] | IC50 (enzyme inhibition) [5] [nM] | IC50 (enzyme inhibition) [6] [nM] | IC50 (enzyme inhibition) [7] [nM] | IC50 (enzyme inhibition) [8] [nM] | IC50 (enzyme inhibition) [9] [nM] | IC50 (enzyme inhibition) [10] [nM] | IC50 (enzyme inhibition) [11] [nM] | IC50 (enzyme inhibition) [12] [nM] | IC50 (enzyme inhibition) [13] [nM] | IC50 (enzyme inhibition) [14] [nM] | IC50 (enzyme inhibition) [15] [nM] | Ki [17] [nM] | Ki [18] [nM] | Ki [19] [nM] | Ki [20] [nM] | Ki [24] [nM] | other results
B1 | 2.2 | > 430 | 1.6 | 24 | > 500 | > 500 | > 500 | > 500 | > 500 | > 500 | > 500 | > 500 | > 500 | > 500 | > 500 | – | – | – | – | – | –
B2 | 2.6 | > 1000 | 6.5 | 64 | > 1000 | > 1000 | > 1000 | > 1000 | > 1000 | > 1000 | > 1000 | > 1000 | > 1000 | > 1000 | > 1000 | – | – | – | – | – | IC50 (enzyme inhibition) [16]: > 1000 nM
B3 | – | – | – | – | – | – | – | – | – | – | – | – | – | – | – | 0.3 | 0.5 | 0.3 | 0.6 | – | –
B4 | – | – | – | – | > 1000 | > 1000 | > 1000 | > 1000 | > 1000 | > 1000 | > 1000 | 900 | > 1000 | > 1000 | > 1000 | – | – | – | – | – | IC50 (enzyme inhibition) [16]: 12 nM; Ki [21]: 0.34 nM; Ki [22]: 0.1 nM; Ki [23]: 0.25 nM
B5 | – | – | – | – | – | – | – | – | – | – | – | – | – | – | – | 0.2 | 0.4 | 0.4 | 0.6 | 0.2 | Ki [25]: 0.4 nM
B6 | 2 | > 1000 | 1.8 | 13 | – | – | – | – | – | – | – | – | – | – | – | – | – | – | – | – | –
B7 | – | – | – | – | – | – | – | – | – | – | – | – | – | – | – | 0.6 | 0.4 | 0.5 | 0.6 | – | –
B8 | – | – | – | – | – | – | – | – | – | – | – | – | – | – | – | 0.1 | 0.4 | 0.8 | 0.4 | 0.1 | Ki [25]: 0.1 nM
B9 | – | – | – | – | – | – | – | – | – | – | – | – | – | – | – | 0.6 | 0.5 | 0.6 | 1 | 0.7 | Ki [25]: 1.2 nM
B10 | – | – | – | – | – | – | – | – | – | – | – | – | – | – | – | – | – | – | – | – | Kd [26]: 3.1 nM
